B1: Ligand of Numb protein X 2 (Homo sapiens), Q8N448 (parent)
chain: MGTTSDEMVSVEQTSSSSLNPLCFECGQQHWTRENHLYNYQNEVDDDLVCHICLQPLLQPLDTPCGHTFCYKCLRNFLQEKDFCPLDRKRLHFKLCKKSSILVHKLLDKLLVLCPFSSVCKDVMQRCDLEAHLKNRCPGASHRRVALERRKTSRTQAEIENENGPTLLDPAGTLSPEADCLGTGAVPVERHLTSASLSTWSEEPGLDNPAFEESAGADTTQQPLSLPEGEITTIEIHRSNPYIQLGISIVGGNETPLINIVIQEVYRDGVIARDGRLLAGDQILQVNNYNISNVSHNYARAVLSQPCNTLHLTVLRERRFGNRAHNHSDSNSPREEIFQVALHKRDSGEQLGIKLVRRTDEPGVFILDLLEGGLAAQDGRLSSNDRVLAINGHDLKYGTPELAAQIIQASGERVNLTIARPGKPQPGNTIREAGNHSSSSQHHTPPPYYSRPSSHKDLTQCVTCQEKHITVKKEPHESLGMTVAGGRGSKSGELPIFVTSVPPHGCLARDGRIKRGDVLLNINGIDLTNLSHSEAVAMLKASAASPAVALKALEVQIVEEATQNAEEQPSTFSENEYDASWSPSWVMWLGLPSTLHSCHDIVLRRSYLGSWGFSIVGGYEENHTNQPFFIKTIVLGTPAYYDGRLKCGDMIVAVNGLSTVGMSHSALVPMLKEQRNKVTLTVICWPGSLV
B2: Tuftelin-interacting protein 11 (Homo sapiens), Q9UBB9 (parent)
chain: MSLSHLYRDGEGRIDDDDDERENFEITDWDLQNEFNPNRQRHWQTKEEATYGVWAERDSDDERPSFGGKRARDYSAPVNFISAGLKKGAAEEAELEDSDDEEKPVKQDDFPKDFGPRKLKTGGNFKPSQKGFAGGTKSFMDFGSWERHTKGIGQKLLQKMGYVPGRGLGKNAQGIINPIEAKQRKGKGAVGAYGSERTTQSMQDFPVVDSEEEAEEEFQKELSQWRKDPSGSKKKPKYSYKTVEELKAKGRISKKLTAPQKELSQVKVIDMTGREQKVYYSYSQISHKHNVPDDGLPLQSQQLPQSGKEAKAPGFALPELEHNLQLLIDLTEQEIIQNDRQLQYERDMVVNLFHELEKMTEVLDHEERVISNLSKVLEMVEECERRMQPDCSNPLTLDECARIFETLQDKYYEEYRMSDRVDLAVAIVYPLMKEYFKEWDPLKDCTYGTEIISKWKSLLENDQLLSHGGQDLSADAFHRLIWEVWMPFVRNIVTQWQPRNCDPMVDFLDSWVHIIPVWILDNILDQLIFPKLQKEVENWNPLTDTVPIHSWIHPWLPLMQARLEPLYSPIRSKLSSALQKWHPSDSSAKLILQPWKDVFTPGSWEAFMVKNIVPKLGMCLGELVINPHQQHMDAFYWVIDWEGMISVSSLVGLLEKHFFPKWLQVLCSWLSNSPNYEEITKWYLGWKSMFSDQVLAHPSVKDKFNEALDIMNRAVSSNVGAYMQPGARENIAYLTHTERRKDFQYEAMQERREAENMAQRGIGVAASSVPMNFKDLIETKAEEHNIVFMPVIGKRHEGKQLYTFGRIVIYIDRGVVFVQGEKTWVPTSLQSLIDMAK
partner: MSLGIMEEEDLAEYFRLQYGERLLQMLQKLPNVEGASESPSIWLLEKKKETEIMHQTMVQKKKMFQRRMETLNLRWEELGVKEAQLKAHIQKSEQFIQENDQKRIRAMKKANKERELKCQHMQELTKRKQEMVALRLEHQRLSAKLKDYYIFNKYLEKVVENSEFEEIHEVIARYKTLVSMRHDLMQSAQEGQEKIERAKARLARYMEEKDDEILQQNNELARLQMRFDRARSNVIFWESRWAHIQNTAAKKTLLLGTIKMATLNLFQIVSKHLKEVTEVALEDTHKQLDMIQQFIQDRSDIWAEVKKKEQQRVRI
B3: G-patch domain and KOW motifs-containing protein (Homo sapiens), Q92917 (parent)
chain: MADSKEGVLPLTAASTAPISFGFTRTSARRRLADSGDGAGPSPEEKDFLKTVEGRELQSVKPQEAPKELVIPLIQNGHRRQPPARPPGPSTDTGALADGVVSQAVKELIAESKKSLEERENAGVDPTLAIPMIQKGCTPSGEGADSEPRAETVPEEANYEAVPVEAYGLAMLRGMGWKPGEGIGRTFNQVVKPRVNSLRPKGLGLGANLTEAQALTPTGPSRMPRPDEEQEKDKEDQPQGLVPGGAVVVLSGPHRGLYGKVEGLDPDNVRAMVRLAVGSRVVTVSEYYLRPVSQQEFDKNTLDLRQQNGTASSRKTLWNQELYIQQDNSERKRKHLPDRQDGPAAKSEKAAPRSQHWLHRDLRVRFVDNMYKGGQYYNTKMIIEDVLSPDTCVCRTDEGRVLEGLREDMLETLVPKAEGDRVMVVLGPQTGRVGHLLSRDRARSRALVQLPRENQVVELHYDAICQYMGPSDTDDD
B4: Tuftelin-interacting protein 11 (Homo sapiens), Q9UBB9 (parent)
chain: B2 chain
partner: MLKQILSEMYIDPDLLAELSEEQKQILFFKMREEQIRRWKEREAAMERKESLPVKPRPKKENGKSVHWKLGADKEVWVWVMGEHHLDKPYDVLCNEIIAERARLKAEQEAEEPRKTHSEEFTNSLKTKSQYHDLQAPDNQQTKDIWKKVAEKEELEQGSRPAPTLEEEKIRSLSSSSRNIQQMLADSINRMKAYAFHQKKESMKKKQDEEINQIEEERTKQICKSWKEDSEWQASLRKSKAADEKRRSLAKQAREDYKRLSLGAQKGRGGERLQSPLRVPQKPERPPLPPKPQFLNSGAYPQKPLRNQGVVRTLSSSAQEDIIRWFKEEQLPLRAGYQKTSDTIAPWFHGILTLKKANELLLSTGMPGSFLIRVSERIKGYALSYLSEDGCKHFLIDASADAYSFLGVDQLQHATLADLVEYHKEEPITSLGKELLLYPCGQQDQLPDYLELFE
B5: Keratin, type I cytoskeletal 20 (Homo sapiens), P35900 (parent)
chain: MDFSRRSFHRSLSSSLQAPVVSTVGMQRLGTTPSVYGGAGGRGIRISNSRHTVNYGSDLTGGGDLFVGNEKMAMQNLNDRLASYLEKVRTLEQSNSKLEVQIKQWYETNAPRAGRDYSAYYRQIEELRSQIKDAQLQNARCVLQIDNAKLAAEDFRLKYETERGIRLTVEADLQGLNKVFDDLTLHKTDLEIQIEELNKDLALLKKEHQEEVDGLHKHLGNTVNVEVDAAPGLNLGVIMNEMRQKYEVMAQKNLQEAKEQFERQTAVLQQQVTVNTEELKGTEVQLTELRRTSQSLEIELQSHLSMKESLEHTLEETKARYSSQLANLQSLLSSLEAQLMQIRSNMERQNNEYHILLDIKTRLEQEIATYRRLLEGEDVKTTEYQLSTLEERDIKKTRKIKTVVQEVVDGKVVSSEVKEVEENI
partner: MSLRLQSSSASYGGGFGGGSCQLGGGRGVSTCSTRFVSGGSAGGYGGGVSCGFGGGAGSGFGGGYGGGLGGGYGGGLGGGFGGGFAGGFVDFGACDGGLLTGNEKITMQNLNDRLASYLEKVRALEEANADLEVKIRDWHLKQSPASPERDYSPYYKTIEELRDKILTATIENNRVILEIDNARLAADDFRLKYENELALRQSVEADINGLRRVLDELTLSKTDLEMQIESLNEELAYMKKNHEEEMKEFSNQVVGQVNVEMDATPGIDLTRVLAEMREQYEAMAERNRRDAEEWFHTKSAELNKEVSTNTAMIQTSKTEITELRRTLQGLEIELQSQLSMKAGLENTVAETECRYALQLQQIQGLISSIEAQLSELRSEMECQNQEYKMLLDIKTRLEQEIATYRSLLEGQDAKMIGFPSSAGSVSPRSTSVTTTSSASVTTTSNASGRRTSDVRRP
B6: Centrosomal protein of 55 kDa (Homo sapiens), Q53EZ4 (parent)
chain: MSSRSTKDLIKSKWGSKPSNSKSETTLEKLKGEIAHLKTSVDEITSGKGKLTDKERHRLLEKIRVLEAEKEKNAYQLTEKDKEIQRLRDQLKARYSTTTLLEQLEETTREGERREQVLKALSEEKDVLKQQLSAATSRIAELESKTNTLRLSQTVAPNCFNSSINNIHEMEIQLKDALEKNQQWLVYDQQREVYVKGLLAKIFELEKKTETAAHSLPQQTKKPESEGYLQEEKQKCYNDLLASAKKDLEVERQTITQLSFELSEFRRKYEETQKEVHNLNQLLYSQRRADVQHLEDDRHKTEKIQKLREENDIARGKLEEEKKRSEELLSQVQFLYTSLLKQQEEQTRVALLEQQMQACTLDFENEKLDRQHVQHQLHVILKELRKARNQITQLESLKQLHEFAITEPLVTFQGETENREKVAASPKSPTAALNESLVECPKCNIQYPATEHRDLLVHVEYCSK
partner: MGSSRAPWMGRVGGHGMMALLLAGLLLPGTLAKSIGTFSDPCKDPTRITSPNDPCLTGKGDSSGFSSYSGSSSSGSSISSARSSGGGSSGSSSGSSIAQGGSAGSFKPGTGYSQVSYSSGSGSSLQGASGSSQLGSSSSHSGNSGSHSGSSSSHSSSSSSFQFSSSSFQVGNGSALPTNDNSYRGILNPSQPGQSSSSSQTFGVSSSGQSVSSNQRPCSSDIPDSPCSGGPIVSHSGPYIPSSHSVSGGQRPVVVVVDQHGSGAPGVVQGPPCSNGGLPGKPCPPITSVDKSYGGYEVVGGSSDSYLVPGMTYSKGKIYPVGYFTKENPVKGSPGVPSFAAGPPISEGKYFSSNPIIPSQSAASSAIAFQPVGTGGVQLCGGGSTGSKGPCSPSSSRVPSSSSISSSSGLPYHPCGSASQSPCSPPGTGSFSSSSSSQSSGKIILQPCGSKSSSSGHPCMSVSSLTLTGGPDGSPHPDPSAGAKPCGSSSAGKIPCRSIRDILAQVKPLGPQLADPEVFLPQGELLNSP
B7: Max-like protein X (Homo sapiens), Q9UH92 (parent)
chain: MTEPGASPEDPWVKASPVGAHAGEGRAGRARARRGAGRRGASLLSPKSPTLSVPRGCREDSSHPACAKVEYAYSDNSLDPGLFVESTRKGSVVSRANSIGSTSASSVPNTDDEDSDYHQEAYKESYKDRRRRAHTQAEQKRRDAIKRGYDDLQTIVPTCQQQDFSIGSQKLSKAIVLQKTIDYIQFLHKEKKKQEEEVSTLRKDVTALKIMKVNYEQIVKAHQDNPHEGEDQVSDQVKFNVFQGIMDSLFQSFNASISVASFQELSACVFSWIEEHCKPQTLREIVIGVLHQLKNQLY
B8: Kelch-like protein 2 (Homo sapiens), O95198 (parent)
chain: METPPLPPACTKQGHQKPLDSKDDNTEKHCPVTVNPWHMKKAFKVMNELRSQNLLCDVTIVAEDMEISAHRVVLAACSPYFHAMFTGEMSESRAKRVRIKEVDGWTLRMLIDYVYTAEIQVTEENVQVLLPAAGLLQLQDVKKTCCEFLESQLHPVNCLGIRAFADMHACTDLLNKANTYAEQHFADVVLSEEFLNLGIEQVCSLISSDKLTISSEEKVFEAVIAWVNHDKDVRQEFMARLMEHVRLPLLPREYLVQRVEEEALVKNSSACKDYLIEAMKYHLLPTEQRILMKSVRTRLRTPMNLPKLMVVVGGQAPKAIRSVECYDFKEERWHQVAELPSRRCRAGMVYMAGLVFAVGGFNGSLRVRTVDSYDPVKDQWTSVANMRDRRSTLGAAVLNGLLYAVGGFDGSTGLSSVEAYNIKSNEWFHVAPMNTRRSSVGVGVVGGLLYAVGGYDGASRQCLSTVECYNATTNEWTYIAEMSTRRSGAGVGVLNNLLYAVGGHDGPLVRKSVEVYDPTTNAWRQVADMNMCRRNAGVCAVNGLLYVVGGDDGSCNLASVEYYNPTTDKWTVVSSCMSTGRSYAGVTVIDKPL

Variants of: B1
Settings: with lrc8e_human LRRC8E

Row | Variant | effect of a mutation on the interaction
1 | S198P | with no effect

Variants of: B1
Settings: with atpb_human ATP5F1B

Row | Variant | effect of a mutation on the interaction
2 | S198P | with no effect

Variants of: B1
Settings: with ptcd3_human PTCD3, Q96EY7

Row | Variant | effect of a mutation on the interaction
3 | S198P | with no effect

Variants of: B2
Settings: with ccd42_human CCDC42, Q96M95

Row | Variant | effect of a mutation on the interaction
4 | S688L | with no effect
5 | R8Q | with no effect

Variants of: B3
Settings: with tri23_human TRIM23, P36406
tri23_human TRIM23, P36406, sequence (P36406 whole entry): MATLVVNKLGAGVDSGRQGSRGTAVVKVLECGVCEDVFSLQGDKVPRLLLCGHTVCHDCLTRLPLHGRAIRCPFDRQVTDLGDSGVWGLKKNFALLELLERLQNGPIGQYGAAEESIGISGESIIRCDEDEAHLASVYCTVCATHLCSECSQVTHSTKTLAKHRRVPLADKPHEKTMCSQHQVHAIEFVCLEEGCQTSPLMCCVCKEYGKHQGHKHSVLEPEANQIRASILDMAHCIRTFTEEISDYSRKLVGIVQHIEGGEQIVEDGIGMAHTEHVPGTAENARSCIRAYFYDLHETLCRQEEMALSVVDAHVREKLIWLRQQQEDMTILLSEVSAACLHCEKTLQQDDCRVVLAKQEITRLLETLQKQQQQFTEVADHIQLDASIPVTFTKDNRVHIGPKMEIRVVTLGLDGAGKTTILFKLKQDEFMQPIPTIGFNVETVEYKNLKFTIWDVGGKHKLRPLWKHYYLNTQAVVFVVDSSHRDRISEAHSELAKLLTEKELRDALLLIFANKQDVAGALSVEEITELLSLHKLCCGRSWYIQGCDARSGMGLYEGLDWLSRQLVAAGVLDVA

Row | Variant | effect of a mutation on the interaction
6 | A129T | with no effect
7 | V393A | with no effect

Variants of: B3
Settings: with traf2_human TRAF2, Q12933
traf2_human TRAF2, Q12933, sequence (Q12933 whole entry): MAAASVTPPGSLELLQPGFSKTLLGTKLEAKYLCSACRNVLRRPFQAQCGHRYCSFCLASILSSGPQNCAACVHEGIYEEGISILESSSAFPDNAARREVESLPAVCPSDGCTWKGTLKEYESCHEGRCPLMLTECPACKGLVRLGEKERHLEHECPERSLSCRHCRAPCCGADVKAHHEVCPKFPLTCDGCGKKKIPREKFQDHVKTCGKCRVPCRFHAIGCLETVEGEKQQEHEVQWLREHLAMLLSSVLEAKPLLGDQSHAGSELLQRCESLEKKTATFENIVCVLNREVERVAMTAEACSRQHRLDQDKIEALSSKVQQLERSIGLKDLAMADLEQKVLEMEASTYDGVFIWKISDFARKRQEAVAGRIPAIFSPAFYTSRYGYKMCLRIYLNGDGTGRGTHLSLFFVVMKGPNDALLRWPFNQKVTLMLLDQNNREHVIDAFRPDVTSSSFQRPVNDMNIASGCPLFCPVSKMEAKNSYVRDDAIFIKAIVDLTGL

Row | Variant | effect of a mutation on the interaction
8 | A129T | with no effect
9 | V393A | with no effect

Variants of: B4
Settings: with sh24a_human SH2D4A

Row | Variant | effect of a mutation on the interaction
10 | R8Q | with no effect
11 | S688L | with no effect

Variants of: B5
Settings: with KRT13, P13646

Row | Variant | effect of a mutation on the interaction
12 | S129N | with no effect
13 | S309Y | with no effect

Variants of: B6
Settings: with cdsn_human CDSN

Row | Variant | effect of a mutation on the interaction
14 | H57Q | with no effect
15 | R348K | with no effect
16 | C236R | with no effect
17 | A244P | with no effect

Variants of: B7
Settings: with gbrl2_human GABARAPL2, P60520
gbrl2_human GABARAPL2, P60520, sequence (P60520 whole entry): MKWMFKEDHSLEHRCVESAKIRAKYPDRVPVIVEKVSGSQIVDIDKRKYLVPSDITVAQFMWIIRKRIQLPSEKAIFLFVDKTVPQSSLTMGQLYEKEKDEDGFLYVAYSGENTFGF

Row | Variant | effect of a mutation on the interaction
18 | Q223R | with no effect

Variants of: B8
Settings: with txd12_human TXNDC12, O95881
txd12_human TXNDC12, O95881, sequence (O95881 whole entry): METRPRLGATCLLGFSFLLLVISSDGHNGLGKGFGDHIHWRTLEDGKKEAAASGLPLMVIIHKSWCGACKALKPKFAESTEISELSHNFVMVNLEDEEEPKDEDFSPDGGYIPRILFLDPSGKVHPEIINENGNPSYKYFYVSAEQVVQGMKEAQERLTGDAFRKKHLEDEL

Row | Variant | effect of a mutation on the interaction
19 | A480T | with no effect
20 | S68A | with no effect

Variants of: B8
Settings: with tma16_human TMA16, Q96EY4

Row | Variant | effect of a mutation on the interaction
21 | A480T | with no effect
22 | S68A | with no effect

Variants of: B8
Settings: with cul3_human CUL3, Q13618

Row | Variant | effect of a mutation on the interaction
23 | V156I | with no effect

Variants of: B8
Settings: with zn114_human ZNF114, Q8NC26
zn114_human ZNF114, Q8NC26, sequence (Q8NC26 whole entry): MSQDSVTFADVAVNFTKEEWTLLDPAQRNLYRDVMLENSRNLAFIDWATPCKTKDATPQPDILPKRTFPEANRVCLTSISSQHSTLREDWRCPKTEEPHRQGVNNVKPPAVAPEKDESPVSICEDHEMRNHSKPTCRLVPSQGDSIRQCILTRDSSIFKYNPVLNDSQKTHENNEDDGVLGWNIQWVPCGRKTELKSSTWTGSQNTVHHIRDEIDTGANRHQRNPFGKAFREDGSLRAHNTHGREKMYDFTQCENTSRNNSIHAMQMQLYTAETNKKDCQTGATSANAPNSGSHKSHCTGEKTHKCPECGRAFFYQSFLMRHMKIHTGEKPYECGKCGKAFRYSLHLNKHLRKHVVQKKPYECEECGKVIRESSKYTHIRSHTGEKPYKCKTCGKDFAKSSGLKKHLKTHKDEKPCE

Row | Variant | effect of a mutation on the interaction
24 | V156I | with no effect

From IntAct's records for PubMed 31515488
